B1: DNA repair protein RAD51 (Saccharomyces cerevisiae), P25454 (parent)
chain: MSQVQEQHISESQLQYGNGSLMSTVPADLSQSVVDGNGNGSSEDIEATNGSGDGGGLQEQAEAQGEMEDEAYDEAALGSFVPIEKLQVNGITMADVKKLRESGLHTAEAVAYAPRKDLLEIKGISEAKADKLLNEAARLVPMGFVTAADFHMRRSELICLTTGSKNLDTLLGGGVETGSITELFGEFRTGKSQLCHTLAVTCQIPLDIGGGEGKCLYIDTEGTFRPVRLVSIAQRFGLDPDDALNNVAYARAYNADHQLRLLDAAAQMMSESRFSLIVVDSVMALYRTDFSGRGELSARQMHLAKFMRALQRLADQFGVAVVVTNQVVAQVDGGMAFNPDPKKPIGGNIMAHSSTTRLGFKKGKGCQRLCKVVDSPCLPEAECVFAIYEDGVGDPREEDE

Variants of: B1
Details: with smt3_yeast SMT3, Q12306
smt3_yeast SMT3, Q12306, sequence (Q12306 whole entry): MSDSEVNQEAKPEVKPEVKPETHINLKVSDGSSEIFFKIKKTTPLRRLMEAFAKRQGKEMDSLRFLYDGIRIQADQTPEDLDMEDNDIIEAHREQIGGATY

| effect of a mutation on the interaction | Variant |
| --- | --- |
| disrupting interaction strength | V321A;V322A |

Variants of: B1
Details: with rad52_yeast RAD52, P06778

| effect of a mutation on the interaction | Variant |
| --- | --- |
| decreasing interaction strength | V321A;V322A |
